Assay results from paper PMC2778552.

Biological target: T1, human recombinant aromatase (human) (UniProt P11511)
T1 sequence: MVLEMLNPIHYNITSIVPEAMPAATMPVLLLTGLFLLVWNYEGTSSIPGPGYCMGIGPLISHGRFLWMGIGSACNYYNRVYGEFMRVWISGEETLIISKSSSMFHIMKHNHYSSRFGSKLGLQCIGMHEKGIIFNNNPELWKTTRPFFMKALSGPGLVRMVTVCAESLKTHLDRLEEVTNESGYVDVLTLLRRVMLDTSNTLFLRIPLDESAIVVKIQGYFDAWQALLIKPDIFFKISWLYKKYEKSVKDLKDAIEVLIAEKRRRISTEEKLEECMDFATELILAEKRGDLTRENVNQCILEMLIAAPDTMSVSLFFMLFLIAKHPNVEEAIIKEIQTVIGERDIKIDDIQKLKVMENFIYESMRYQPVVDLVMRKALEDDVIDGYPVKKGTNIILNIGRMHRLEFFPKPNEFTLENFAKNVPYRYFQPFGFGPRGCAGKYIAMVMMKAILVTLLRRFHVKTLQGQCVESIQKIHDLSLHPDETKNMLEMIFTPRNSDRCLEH

B1: NADPH-cytochrome P450 reductase (enzyme)
chain: MGDSHEDTSATMPEAVAEEVSLFSTTDMVLFSLIVGVLTYWFIFRKKKEEIPEFSKIQTTAPPVKESSFVEKMKKTGRNIIVFYGSQTGTAEEFANRLSKDAHRYGMRGMSADPEEYDLADLSSLPEIDKSLVVFCMATYGEGDPTDNAQDFYDWLQETDVDLTGVKFAVFGLGNKTYEHFNAMGKYVDQRLEQLGAQRIFELGLGDDDGNLEEDFITWREQFWPAVCEFFGVEATGEESSIRQYELVVHEDMDVAKVYTGEMGRLKSYENQKPPFDAKNPFLAAVTANRKLNQGTERHLMHLELDISDSKIRYESGDHVAVYPANDSALVNQIGEILGADLDVIMSLNNLDEESNKKHPFPCPTTYRTALTYYLDITNPPRTNVLYELAQYASEPSEQEHLHKMASSSGEGKELYLSWVVEARRHILAILQDYPSLRPPIDHLCELLPRLQARYYSIASSSKVHPNSVHICAVAVEYEAKSGRVNKGVATSWLRAKEPAGENGGRALVPMFVRKSQFRLPFKSTTPVIMVGPGTGIAPFMGFIQERAWLREQGKEVGETLLYYGCRRSDEDYLYREELARFHKDGALTQLNVAFSREQAHKVYVQHLLKRDREHLWKLIHEGGAHIYVCGDARNMAKDVQNTFYDIVAEFGPMEHTQAVDYVKKLMTKGRYSLDVWS
With B1 the Km of aromatase for reductase from Lineweaver–Burk plots; tritiated water release from [1β-3H(N)]-androstenedione, 50 nM pure aromatase, reductase 1 nM to 20 nM, androstenedione 10 nM to 500 nM, 37°C was 1 nM.
